Values quoted from earlier work, collected in PMC4257090.
Like-named read-outs stand apart in the source and are kept apart here.

Columns and labels:
[1] = molecular target: SecA (soluble) (Escherichia coli) (UniProt P10408)
[2] = molecular target: SecA (membrane-bound) (Escherichia coli) (UniProt P10408)
[3] = molecular target: SecA (membrane-bound) (Escherichia coli) (UniProt P10408); remark: listed apart in the source

Kd [1]: 1500 nM | Kd [2]: 10 nM | Kd [3]: 30 nM
Substance: SecB (from UniProt P0AG86)
